In US20240218054A1 (MABLOC, published 2024):

T1: recombinant YFV-17D DIII protein (Yellow fever virus, strain 17D, UniProt P03314 578-682)
T1 construct: also called domain III
T1 sequence: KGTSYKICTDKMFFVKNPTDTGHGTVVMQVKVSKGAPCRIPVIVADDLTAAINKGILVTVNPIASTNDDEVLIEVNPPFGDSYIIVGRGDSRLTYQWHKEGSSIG

B1: ADI-45090 (antibody, V domains shown)
VH: EVQLVESGGGLVQPGRPLRLSCAASGFAFSSYGMHWVRQAPGKGLEWVALIRFDGTIKYYADSVKGRFTISRDNAKNTLYLQMSSLRAEDTAVYYCARDLEVGAEYLYYHYGMDVWGQGTTVTVSS
VL: QPVLTQPPSASGTPGQRVTIFCSGSRSNIGTYTINWYQKLPGTAPKLLIYSNNRGPSGVPDRFSGSQSGTSASLAISGLQPEDEADYYCAAWDDSLNGWVFGGGTKVTVL
notes: full-length IgG; also called Antibody Number 4
B2: ADI-45075 (antibody, V domains shown)
VH: EVQLLESGGGLVQPGGSLRLSCAASGFTFSSYAMSWVRQAPGKGLEWVSVISDSGGSTYYADSVKGRFTISRDNSKNTLYLQMNSLRAEDTAVYYCAKDLRGVGGWYYFDYWGQGTLVTVSS
VL: EIVLTQSPSSLSASVGDRVTITCQASQDISNFLNWYQQKPGKAPKLLIYDASSLETGVPSRFSGSGSGTDFTFTISSLQPEDIATYYCQQYDNLPLTFGGGTKLEIK
notes: full-length IgG; also called Antibody Number 45
B3: ADI-49147 (antibody, V domains shown)
VH: QVQLQESGGDLVQPGGSLRLSCAASGFTFSNYAMNWVRQAPGKGLEWVSAINRGGDSTYYADSVKGRFTISRDNSKNTLYLQMNSLRAEDTAVYYCAKDHGGKYGWWYFDLWGRGTLVTVSS
VL: DIRVTQSPATLSVSPGERATLSCRASQSVSSNLAWYQQKPGQAPRLLIYDASNRATGIPVRFSGSGSGTDFTLTISSLQSEDFAVYYCQQYDNWPLTFGGGTKVEIK
notes: full-length IgG; also called Antibody Number 2
B4: ADI-45113 (antibody, V domains shown)
VH: QVQLVQSGGGLVQPGGSLRLSCAASGFTFSSYAMSWVRQAPGKGLEWVSAISGSGGSTYYADSVKGRFTISRDNSKNTLHLQMSSLRAEDTAVYYCAKDPKYSSGWWAFDYWGQGTLVTVSS
VL: EIVMTQSPATLSVSPGERATLSCRASQSVSSNLAWYQQKPGQAPRLLIYGASTRATGIPARFSGSGSGTEFTLTISSLQSEDFALYYCQQYDDWPLFGQGTRLEIK
notes: full-length IgG; also called Antibody Number 20
B5: ADI-48968 (antibody, V domains shown)
VH: EVQLLESGGGLGQPGGSLRLSCVASKFTFSDHYMDWVRQAPGKGLEWVGRIRNKPNGYTTEYAASVKGRFIISRDDSKNSLYLQMKSLKIEDTAIYYCVRVWGGEAARYDYWGQGALVTVSS
VL: DIRLTQSPSSLSASVGDRVTITCRASQDIRKFLNWYQQKLGKAPSLLIYGASSLQSGVPSRFSGSGSGTDFTLTISSLQPEDFAIYYCQHASTTPWTFGQGTKVEIK
notes: full-length IgG; also called Antibody Number 98
B6: ADI-42212 (antibody, V domains shown)
VH: EVQLVESGGGLVQPGGSLRLSCAASGFTFSDHYMDWVRQAPGKGLEWVGRSRNKPNSYITEYAASVKGRFTISRDDSKNSLYLQMNSLKTEDTAVYYCSRHMGFGLDLWGQGTLVTVSS
VL: SYELTQPPSVSVSPGQTATITCSGDKLGYTYTCWYQQKPGQSPVLVIYQDTKRPSGIPERFSGSNSGNTATLTITGTQAMDEADYYCQAWDTTTAGGVFGGGTKLTVL
notes: full-length IgG; also called Antibody Number 99

Target: T1, recombinant YFV-17D DIII protein
Assay: BLI, recombinant YFV-17D DIII protein

Row | Binder | binding result
1 | B1 | binds
2 | B2 | binds
3 | B3 | binds
4 | B4 | binds

Target: T2, recombinant YFV E protein (soluble E, sE; YFV Asibi strain) (Yellow fever virus, Asibi strain, UniProt Q6DV88 286-678)
T2 construct: also called YFV E antigen; YFV E monomer
T2 sequence (Q6DV88 286-678): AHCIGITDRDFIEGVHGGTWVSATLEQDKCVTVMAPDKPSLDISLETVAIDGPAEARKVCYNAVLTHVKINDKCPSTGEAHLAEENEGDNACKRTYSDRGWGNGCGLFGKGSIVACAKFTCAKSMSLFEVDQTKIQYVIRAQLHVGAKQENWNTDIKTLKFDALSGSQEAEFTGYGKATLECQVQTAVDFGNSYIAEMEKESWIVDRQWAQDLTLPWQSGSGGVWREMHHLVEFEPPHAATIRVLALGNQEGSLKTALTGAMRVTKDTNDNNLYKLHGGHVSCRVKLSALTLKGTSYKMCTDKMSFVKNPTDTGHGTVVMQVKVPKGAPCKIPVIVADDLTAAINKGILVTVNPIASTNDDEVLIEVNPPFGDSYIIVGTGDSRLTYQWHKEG
Assay: BLI monovalent (IgG on tip)

Row | Binder | Kd
5 | B1 | 2.11 nM
6 | B2 | 26.1 nM
7 | B3 | 3.73 nM
8 | B5 | 0.963 nM
9 | B4 | 253 nM
10 | B6 | 0.884 nM
